Measured values: patent publication US7033773B1, “Screening assays for G protein coupled receptor agonists and antagonists” (The General Hospital Corporation, priority 1997, dated 2006)
Where no end group is shown, it is not given here.

Key:
human PTH/PTHrP receptor [1] = target: T1, human PTH/PTHrP receptor (Homo sapiens, UniProt Q03431); test: Urokinase-type plasminogen activator (u-PA) secretion bioassay in LLC-PK1 cells expressing human PTHR; conditions: for secreted u-PA: peptide 1000 nM, 16 hr, mean±SEM
T1 sequence (Q03431 27-593): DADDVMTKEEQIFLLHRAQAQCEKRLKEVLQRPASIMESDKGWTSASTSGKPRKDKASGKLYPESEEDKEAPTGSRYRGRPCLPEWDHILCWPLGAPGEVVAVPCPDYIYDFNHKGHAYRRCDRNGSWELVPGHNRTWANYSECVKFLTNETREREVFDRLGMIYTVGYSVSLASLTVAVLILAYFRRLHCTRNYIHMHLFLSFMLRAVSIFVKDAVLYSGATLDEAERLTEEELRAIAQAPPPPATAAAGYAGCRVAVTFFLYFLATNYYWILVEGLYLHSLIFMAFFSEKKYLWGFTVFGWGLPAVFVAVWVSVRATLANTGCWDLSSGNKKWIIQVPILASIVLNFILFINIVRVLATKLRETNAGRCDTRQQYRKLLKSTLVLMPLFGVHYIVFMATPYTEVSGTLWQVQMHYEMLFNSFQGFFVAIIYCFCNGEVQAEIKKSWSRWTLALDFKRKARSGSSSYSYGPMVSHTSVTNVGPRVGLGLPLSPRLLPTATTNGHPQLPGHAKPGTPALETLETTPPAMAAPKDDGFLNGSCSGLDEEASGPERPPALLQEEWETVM
Description: Cells were seeded into 96-well plates at a density of 6×10^4 cells/well and used the following day. The cells were washed once with 0.2 ml and then refed with 0.1 ml of prewarmed DMEM containing 0.05% BSA. After adding each stimulator, plates were returned to the incubator at 37° C. for 16 h. Conditioned medium (5 ul) then was transferred from each well to a clean microplate. […] Activity was expressed in Ploug units/well, using purified human urokinase (Calbiochem) as a standard.
Cells were incubated with the indicated peptides (1000 nM) for 16 hr before measurement of secreted u-PA present in the medium, which was expressed as a percentage of the activity measured in vehicle-treated controls. Values shown are means±SEM of triplicate determinations.

human PTH/PTHrP receptor [2] = target: T1, human PTH/PTHrP receptor; test: Cytosolic free calcium (fura-2) in LLC-PK1 cells expressing human PTHR; conditions: 100 nM peptide; HKRK B7 cells
Description: Cytosolic free calcium was measured in fura 2AM-loaded confluent monolayers of cells.
Cytosolic free calcium was measured by dual fluorescence in cells loaded with the Ca^2+-sensitive intracellular probe fura-2. Cells were seeded onto glass coverslips at a density of 40,000-600,000/cm^2 and incubated for 2 days as described above. Coverslips were washed twice with PBS before loading in phosphate-free Buffer B containing 4 uM of fura-2/AM (Molecular Probes, Eugene, Oreg.) for 30 min at room temperature (22° C.). After washing twice with fura-free Buffer B, the coverslips were mounted in a cuvette containing 2 ml of phosphate-free Buffer B at 37° C. and the emission at 510 nm in response to alternating excitation at 340 and 380 nm was monitored using a ratiometric PTI Deltascan fluorescence spectrometer with excitation and emission bandwidths of 2 nm. After achieving a stable baseline, agonists were introduced by exchange into 2 ml of fresh buffer to which 10-20 ul of concentrated agonist stock (or vehicle alone) had been added. Peptide stocks were prepared in 0.1% trifluoroacetic acid, ionomycin and phorbol esters were dissolved in dimethyl sulfoxide and all other additives were prepared in water. Maximum and minimum fluorescence signals were obtained by exposure to modified buffers containing 1 uM ionomycin plus 20 mM calcium or 2 mM EGTA in the nominal absence of calcium, respectively, and autofluorescence was estimated from signals obtained in the presence of ionomycin plus 2.5 mM MnCl2.

human PTH/PTHrP receptor [3] = target: T1, human PTH/PTHrP receptor; test: Cellular cAMP accumulation in LLC-PK1 cells expressing human PTHR; assay type: cell-based; set-up: transfected with a full-length human PTH/PTHrP receptor cDNA; expressed in transfected cells; conditions: HKRK B28 cells; for activation of AC (in words): similar in HKRK B7
Description: Cells were seeded into 24-well plates at a density of 2.5×10^5 cells/well and cultured for a further 2 days before study. The cells were rinsed once with 0.5 ml of ice-cold Buffer B [10 mM HEPES (pH 7.4), 130 mM NaCl, 5 mM KCl, 1.2 mM CaCl2, 1 mM MgCl2, 1.2 mM Na2HPO^4 5 mM glucose, and 0.1% heat-inactivated BSA] supplemented with 1 mM isobtylmethylxanthine (IBMX), and placed on ice. Treatments were added to each well in 0.25 ml of IBMX-supplemented Buffer B, after which the plates were incubated at 37° C. for 15 min. The buffer then was rapidly aspirated, the plates were rapidly transferred onto liquid nitrogen, and the frozen monolayers were subsequently thawed directly into 0.5 ml of 50 mM HCl. The extracted cAMP then was measured using a commercial RIA kit (Dupont-New England Nuclear, Boston, Mass.). Results were expressed as fold-basal, where basal levels ranged between 38 and 128 pmol/mg protein/15 min. The basal level of cAMP accumulation in native LLC-PK1 cells was not consistently altered in subclones that expressed wild type PTH/PTHrp receptors.
Maximal PTH-dependent cAMP accumulation was assessed in the human PTHR-transfected LLC-PK1 subclones following incubation for 15 min with a high concentration (1000 nM) of hPTH(1-34) (Table 1). As reported previously for LLC-PK1 cells that stably expressed rat PTHRs (Guo, J., et al., Endocrinology 136:3884-3891 (1995)), the maximal adenylyl cyclase response was relatively independent of the surface density of human PTHRs above a relatively low threshold (relative to that required for PLC activation—see below). In the case of the human PTHR, however, this threshold for saturation of maximal AC activation appeared to lie between 120,000 and 280,000 (Table 1), which is at least 6 to 10-fold higher than that previously observed for the rat PTHR (Guo, J., et al., Endocrinology 136:3884-3891 (1995)).

human PTH/PTHrP receptor [4] = target: T1, human PTH/PTHrP receptor; test: IP3 production (PLC activation) in LLC-PK1 cells expressing human PTHR; assay type: cell-based; set-up: transfected with a full-length human PTH/PTHrP receptor cDNA; expressed in transfected cells; conditions: for activation of PLC (in words): 1000 nM, HKRK B28 at 4 min and HKRK B7 at 30 min; for formation of IP3 (activation of phospholipase-C): peptide 1000 nM, mean±SEM
Description: Cells were seeded into 24-well plates at a density of 2.5×10^5 cells/well and cultured for a further 2 days before study. The cells were labeled at 37° C. for 16 h before assay with 3 uCi/ml of [^3H]myo-inositol in assay medium (serum- and inositol-free DMEM (GIBCO-BRL, Grand Island, N.Y.) supplemented with 0.1% BSA). After washing the cells with prewarmed assay medium containing 30 mM LiCl, they were incubated with 0.25 ml of assay medium containing 30 mM LiCl and stimulators (or vehicle) at 37° C. for various intervals(1-30 min). IP3 formation was arrested by aspiration and immediate addition of 0.5 ml of ice-cold 5% TCA. The acid extracts then were extracted twice with two volumes of water-saturated ether and adjusted to pH 7.4 with concentrated NaOH and Tris base (final concentration=10 mM) prior to chromatography on AG 1×8 anion-exchange columns (Bio-Rad, Richmond, Calif.), as previously described (Guo, J., et al., Endocrinology 136:3884-3891 (1995)). After eluting other fractions (free [^3H]myo-inositol, glycerophosphate inositol, IP1, and IP2), IP3 fractions were collected and their content of radioactivity was determined by liquid scintillation spectrometry (Beckman, model LS 6000IC).
HKRK B7 cells and HKRK B28 cells, previously loaded with [^3H]myo-inositol, were incubated with each peptide (1000 nM) for 30 min or 4 min, respectively. The formation of IP3 is expressed as a percentage of the amount measured in vehicle-treated controls. Values shown are means±SEM of triplicate determinations.

human PTH/PTHrP receptor [5] = target: T1, human PTH/PTHrP receptor; test: Cellular phosphate uptake in LLC-PK1 cells expressing human PTHR; assay type: cell-based; set-up: transfected with a full-length human PTH/PTHrP receptor cDNA; expressed in transfected cells; conditions: HKRK B28 and HKRK B7 cells; peptides 1000 nM, 6 hr
Description: FIG. 8. Regulation of phosphate uptake by PTH in HKRK B7 and HKRK B28 cells. […] Results are expressed as percentage of basal, and each bar represents the mean±SEM of a representative experiment performed in triplicate. Similar results were obtained from at least 5 individual experiments. Cells were seeded into 24-well plates at a density of 2.5×10^5 cells/well and cultured for a further 2 days before study. Twenty four hours before assay, cells were refed with 0.5 ml of DMEM containing 0.1% BSA. The next day, cells were refed with serum-free medium (DMEM+0.1% BSA) containing drugs or peptides, and the incubations were continued at 37° C. under 5% CO2 in air for another 6 hr. Cells then were washed with prewarmed Buffer B without BSA and Na2HPO4 and then were incubated at 37° C. for 5 min in 0.25 ml of the same buffer containing [^32P]orthophosphate (4 uCi/ml) and 0.1 mM Na2HPO4. Phosphate uptake was arrested by adding 1 ml of ice-cold sodium-free “stop buffer” [10 mM HEPES (pH 7.4), 140 mM choline chloride, and 5 mM sodium arsenate], followed by two further washes with same buffer. The drained cell layer then was solubilized in 0.5 ml of Lysis Buffer, and cell-associated radioactivity was determined by Cerenkov counting, as previously described (Guo, J., et al., Endocrinology 136:3884-3891 (1995)).

[6] = HKRK B7 cells, 30 min stimulation
[7] = HKRK B28 cells, 4 min stimulation

u-PA bioassay activity, % of maximal response to hPTH(1-34) (human PTH/PTHrP receptor [1]; HKRK B7 and HKRK B28 cells)	concentrations at which AC was stimulated significantly (human PTH/PTHrP receptor [3]) [nM]	cAMP response as % of the maximal response to hPTH(1-34) (human PTH/PTHrP receptor [3]; 1000 nM peptide) [%]	formation of IP3 (activation of phospholipase-C) (human PTH/PTHrP receptor [4]; [6])	formation of IP3 (activation of phospholipase-C) (human PTH/PTHrP receptor [4]; [7])	maximal activation of phosphate uptake (in words) (human PTH/PTHrP receptor [5])	u-PA bioassay activity (in words) (human PTH/PTHrP receptor [1]; HKRK B7 and HKRK B28 cells)	Substance	secreted u-PA (human PTH/PTHrP receptor [1]; HKRK B7 cells)	secreted u-PA (human PTH/PTHrP receptor [1]; HKRK B28 cells)	cytosolic free calcium transients (human PTH/PTHrP receptor [2])	activation of PLC (in words) (human PTH/PTHrP receptor [4])	activation of AC (in words) (human PTH/PTHrP receptor [3])
50-60%	≥ 10	16	103 ± 1 percentage of vehicle-treated	85 ± 9 percentage of vehicle-treated	inactive	–	hPTH(3-34) (SEIQLMHNLGKHLNSMERVEWLRKKLQDVHNF-NH2; UniProt P01270 34-65, looked up, fragment) [amino-terminally truncated human PTH analog]	57 ± 3 percentage of the activity measured in vehicle-treated controls	50 ± 1 percentage of the activity measured in vehicle-treated controls	neither hPTH(3-34) nor hPTH(7-34) (100 nM) induced this response	neither hPTH(3-34) nor hPTH(7-34) activated PLC significantly	–
–	–	–	122 ± 7 percentage of vehicle-treated	92 ± 10 percentage of vehicle-treated	inactive	inactive	hPTH(7-34) (LMHNLGKHLNSMERVEWLRKKLQDVHNF; Parathyroid hormone; UniProt P01270 38-65, looked up, fragment) [amino-terminally truncated human PTH analog]	1 ± 1 percentage of the activity measured in vehicle-treated controls	0 ± 2 percentage of the activity measured in vehicle-treated controls	neither hPTH(3-34) nor hPTH(7-34) (100 nM) induced this response	neither hPTH(3-34) nor hPTH(7-34) activated PLC significantly	failed to activate AC at all concentrations tested

Substance	u-PA bioassay activity, % of maximal response to hPTH(1-34) (human PTH/PTHrP receptor [1]; HKRK B7 and HKRK B28 cells)	concentrations at which AC was stimulated significantly (human PTH/PTHrP receptor [3]) [nM]	cAMP response as % of the maximal response to hPTH(1-34) (human PTH/PTHrP receptor [3]; 1000 nM peptide) [%]	formation of IP3 (activation of phospholipase-C) (human PTH/PTHrP receptor [4]; [6])	formation of IP3 (activation of phospholipase-C) (human PTH/PTHrP receptor [4]; [7])	maximal activation of phosphate uptake (in words) (human PTH/PTHrP receptor [5])	u-PA bioassay activity (in words) (human PTH/PTHrP receptor [1]; HKRK B7 and HKRK B28 cells)	secreted u-PA (human PTH/PTHrP receptor [1]; HKRK B7 cells)	secreted u-PA (human PTH/PTHrP receptor [1]; HKRK B28 cells)	cytosolic free calcium transients (human PTH/PTHrP receptor [2])	activation of PLC (in words) (human PTH/PTHrP receptor [4])	activation of AC (in words) (human PTH/PTHrP receptor [3])
hPTHrp(1-36)	–	–	–	93 ± 6 percentage of vehicle-treated	160 ± 9 percentage of vehicle-treated	comparable maximal activation of phosphate uptake	–	88 ± 5 percentage of the activity measured in vehicle-treated controls	97 ± 9 percentage of the activity measured in vehicle-treated controls	–	stimulated PLC equivalently to hPTH(1-34)	indistinguishable from that to hPTH(1-34)
